# Entries after “also recorded” stand apart in the source; their conditions may differ.
# Columns and labels:
# RAW 264.7 cells = experiment: Cell-permeability of FITC-labeled SOCS3 recombinant proteins (flow cytometry); format: cell-based
# Method: To examine cell-permeability of SOCS3 recombinant protein, SOCS3 recombinant proteins were conjugated to 5/6-fluorescein isothiocyanate (FITC). RAW 264.7 (KCLB, Seoul, South Korea) (FIG. 20) or NIH3T3 cells (KCLB, Seoul, South Korea) (FIG. 21) were treated with 10 μM FITC-labeled SOCS3 recombinant proteins and cultivated for 1 hr at 37° C.
# In this regard, RAW 264.7 cells were cultured in a DMEM medium containing 10% fetal bovine serum (FBS, Hyclone, USA) and […] of 1% penicillin/streptomycin (Hyclone, USA).
# After cultivation, the cells were washed three times with ice-cold PBS (Phosphate-buffered saline, Hyclone, USA) and treated with proteinase K (10 μg/mL, SIGMA, USA) to remove surface-bound proteins, and internalized proteins were measured by flow cytometry (FlowJo cytometric analysis software, Guava, Millipore, Darmstadt, Germany). Untreated cells (gray) and equimolar concentration of unconjugated FITC (FITC only, green)-treated cells were served as control (FIG. 20). Each of NIH3T3 cells was incubated for 1 hour at 37° C. with 10 μM FITC-labeled SOCS3 protein. For nuclear staining, a mixture of […] Mounting Medium (Vector laboratories, Burlingame, Calif.) and DAPI (4′,6-diamidino-2-phenylindole) was added to NIH3T3 cells, and visualized using a confocal laser microscope (LSM700, Zeiss, Germany) (FIG. 21).
# [1] = Tissue-permeability / systemic delivery of FITC-labeled SOCS3 proteins after intraperitoneal injection; format: in vivo, ICR mice
# Method: To further investigate in vivo delivery of SOCS3 recombinant proteins, ICR mice (Doo-Yeol Biotech Co. Ltd., Seoul, Korea) were intraperitoneal (IP) injected with 600 μg/head of 10 μM FITC (Fluorescein isothiocyanate, SIGMA, USA)-labeled SOCS3 proteins and sacrificed after 2 hrs. From the mice, the liver, kidney, spleen, lung, heart, and brain were removed and washed with PBS, and then placed on a dry ice, and embedded with an O.C.T. compound (Sakura). After cryosectioning at 20 μm, tissue distributions of fluorescence-labeled-SOCS3 proteins in different organs was analyzed by fluorescence microscopy (Carl Zeiss, Gottingen, Germany)(FIG. 22).
# The liver tissue permeability was analyzed by the method described in Example 7-2.
# HepG2 cells [2] = experiment: Cell-permeability of FITC-labeled SOCS3 recombinant proteins in hepatocellular carcinoma cells (flow cytometry); format: cell-based, human; details: 10 μM FITC-labeled protein, 1 hr, 37° C.
# Method: HepG2 cells (ATCC, Manassas, Va., USA) were seeded in a 12 well plate, grown to 90% confluence. Cells were treated with 10 μM FITC-labeled iCP-SOCS3 recombinant proteins and cultivated for 1 hr at 37° C.
# After cultivation, the cells were treated with proteinase K (10 ug/mL, SIGMA, USA) and washed three times with ice-cold PBS (Phosphate-buffered saline, Hyclone, USA) to remove surface-bound proteins, and internalized proteins were measured by flow cytometry (FlowJo cytometric analysis software, Guava, Millipore, Darmstadt, Germany). Untreated cells (gray) and equimolar concentration of unconjugated FITC (FITC only, green)-treated cells were served as control (FIG. 57).
# Chang liver cells = experiment: Wound cell migration assay; format: cell-based, human; details: 10 μM 2 hrs, additional 24-72 hrs
# Method: (§1) Cells were seeded into 12-well plates, grown to 90% confluence, and incubated with 10 μM Non-CP-SOCS3 (HS3B), iCP-SOCS3 (HM165S3B) in serum-free medium for 2 hrs prior to changing the growth medium (recommended medium by the supplier). The cells were washed twice with PBS, and the monolayer at the center of the well was “wounded” by scraping with a pipette tip. Cells were cultured for an additional 24-72 hrs and cell migration was observed by phase contrast microscopy (Nikon, ECLIPSE Ts2). The migration was quantified by counting the number of cells that migrated from the wound edge into the clear area.
# HepG2 cells [3] = experiment: Wound cell migration assay; format: cell-based, human; details: 10 μM 2 hrs, additional 24-72 hrs
# Method: as §1
# Huh-7 cells [4] = experiment: Wound cell migration assay; format: cell-based, human; details: 10 μM 2 hrs, additional 24-72 hrs
# Method: as §1
# HepG2 cells [5] = experiment: Transwell migration assay; format: cell-based, human; details: 24 hrs, compared with vehicle and non-permeable SOCS3
# Method: (§2) The lower surface of Transwell inserts (Costar) was coated with 0.1% gelatin, and the membranes were allowed to dry for 1 hr at room temperature. The Transwell inserts were assembled into a 24-well plate, and the lower chamber was filled with growth media containing 10% FBS and FGF2 (40 ng/ml). Cells were added to each upper chamber at a density of 5×10^5, and the plate was incubated at 37° C. in a 5% CO2 incubator for 24 hrs. Migrated cells were stained with 0.6% hematoxylin and 0.5% eosin and counted.
# Huh-7 cells [6] = experiment: Transwell migration assay; format: cell-based, human; details: 24 hrs, compared with vehicle and non-permeable SOCS3
# Method: as §2
# SK-Hep-1 cells = experiment: Transwell migration assay; format: cell-based, human; details: 24 hrs, compared with vehicle and non-permeable SOCS3
# Method: as §2
# [7] = tested on: Bcl-2, NF-κB (p-p65), cleaved caspase-3 in Hep3B cells; experiment: Immunoblotting of apoptosis-related proteins; format: cell-based, human; details: 10 μM, 24 hr
# Method: (§3) Cells were treated for 24 hr with 10 μM HS3B or HM165S3B proteins, lysed in RIPA lysis buffer containing proteinase inhibitor cocktail, incubated for 15 min at 4° C., and centrifuged at 13,000 rpm for 10 min at 4° C. Equal amounts of lysates were separated on 15% SDS-PAGE gels and transferred to a nitrocellulose membrane. The membranes were blocked using 5% skim milk or 5% Albumin in TBST and incubated with the following antibodies: anti-Bcl-2 (Santa Cruz biotechnology), anti-Cleaved Caspase 3 (Cell Signaling Technology), anti-phospho-p65 and anti-p65 (Cell Signaling Technology), then HRP conjugated anti-mouse or anti-rabbit secondary antibody. The expression of each protein was determined by immunoblotting with indicated antibodies. An antibody against β-actin was used as a loading control.
# [8] = tested on: Bcl-2, NF-κB (p-p65), cleaved caspase-3 in HepG2 cells; experiment: Immunoblotting of apoptosis-related proteins; format: cell-based, human; details: 10 μM, 24 hr
# Method: as §3
molecule,measurement,setting,value
"HM165S3B: His-tagged recombinant protein of aMTD165, human SOCS3 and solubilization domain B; prototype improved cell-permeable SOCS3 (protein, Amino acid sequence of HM165S3B) MGSSHHHHHHSSGLVPRGSHMALAVPVALAIVPVTHSKFPAAGMETSRPLDTSLRLKTFSSKSEYQLVVNAVRKLQESGFYWSAVTGGEANLLLSAEPAGTFLIRDSSDQRHFFTLSVKTQSGTKNLRIQCEGGSFSLQSDPRSTQPVPRFDCVLKLVHHYMETPPPGAPSFPSPPTEPSSEVPEQPSAQPLPGSPPRRAYYIYSGGEKIPLVLSRPLSSNVATLQHLCRKTVNGHLDSYEKVTQLPGPIREFLDQYDAPLGSMAEQSDKDVKYYTLEEIQKHKDSKSTWVILHHKVYDLTKFLEEHPGGEEVLGEQAGGDATENFEDVGHSTDARELSKTYIIGELHPDDRSKIAKPSETL",dose-dependency of cell-permeability,"RAW 264.7 cells; 0.05 μM~10 μM, 1 hrs",dose-dependent
same,cell-permeability (protein uptake),"RAW 264.7 cells; 10 μM FITC-labeled protein, 1 hr, 37° C.",efficiently entered the cells; also recorded: very efficient; also recorded: showed the highest cell-permeability; also recorded: high cell permeability
same,time-dependency of cell-permeability,"RAW 264.7 cells; 10 μM, 5~180 minutes",high level of cell-permeability of iCP-SOCS3 was observed only 5 minutes post-treatment and could be seen even at 180 minutes mark
same,tissue distribution / systemic delivery,"[1]; IP 600 μg/head FITC-labeled protein, sacrificed after 2 hrs, liver, kidney, spleen, lung, heart, brain","distributed to a variety of tissues (liver, kidney, spleen, lung, heart and, to a lesser extent, brain); also recorded: showed the highest systemic delivery of SOCS3 protein to the tissues; also recorded: exhibited superior cell-permeability"
same,systemic delivery to liver,[1]; intraperitoneal injection,enhanced the systemic delivery to liver
same,transduction into HepG2 cells,HepG2 cells [2],promoted the transduction into cultured HCC HepG2 cells
same,"wound cell migration, normal Chang liver cells",Chang liver cells,had no effect on the cell migration
same,"wound cell migration, HepG2",HepG2 cells [3],suppressed the repopulation of wounded monolayer
same,"wound cell migration, Huh-7",Huh-7 cells [4],suppressed the repopulation of wounded monolayer
same,"Transwell migration, HepG2",HepG2 cells [5],significant inhibitory effect on their Transwell migration
same,"Transwell migration, Huh-7",Huh-7 cells [6],significant inhibitory effect on their Transwell migration
same,"Transwell migration, SK-Hep-1",SK-Hep-1 cells,significant inhibitory effect on their Transwell migration
same,"expression of Bcl-2, Hep3B",[7],dramatically reduced
same,"expression of NF-κB (p-p65), Hep3B",[7],dramatically reduced
same,"level of cleaved caspase-3, Hep3B",[7],increased
same,"expression of Bcl-2, HepG2",[8],dramatically reduced
same,"expression of NF-κB (p-p65), HepG2",[8],dramatically reduced
same,"level of cleaved caspase-3, HepG2",[8],increased
